Primed or numbered codes have the meaning given here. No end group written: not given here. Biotin′ = biotin label at the C-terminus
T1: WGPRPRRYTVLSK-Biotin (human)
T1 construct: Overlapping peptide of the outer loop of human LAG-3; also called LAG-3 Extra cyclic peptide
T1 peptide: WGPRPRRYTVLSK-{Biotin′}

T2: PAAPSSWGPRPRK-Biotin (human)
T2 construct: Overlapping peptide of the outer loop of human LAG-3; also called LAG-3 Extra cyclic peptide
T2 peptide: PAAPSSWGPRPRK-{Biotin′}

T3: GPPAAAPGHPLAPGPHPAAPSSWGPRPRRYK-biotin (full length of the outer loop) (human, biotin coupled to the C-terminus (K-biotin))
T3 construct: Printed over two rows (r36 and r37; again r54 and r55); also called LAG-3 Extra cyclic peptide
T3 peptide: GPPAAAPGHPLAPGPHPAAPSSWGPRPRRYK

T4: SWGPRPRRYTVLK-Biotin (human)
T4 construct: Overlapping peptide of the outer loop of human LAG-3; also called LAG-3 Extra cyclic peptide
T4 peptide: SWGPRPRRYTVLK-{Biotin′}

T5: APSSWGPRPRRYK-Biotin (human)
T5 construct: Overlapping peptide of the outer loop of human LAG-3; also called LAG-3 Extra cyclic peptide
T5 peptide: APSSWGPRPRRYK-{Biotin′}

T6: AAPSSWGPRPRRK-Biotin (human)
T6 construct: Overlapping peptide of the outer loop of human LAG-3; also called LAG-3 Extra cyclic peptide
T6 peptide: AAPSSWGPRPRRK-{Biotin′}

T7: PSSWGPRPRRYTK-Biotin (human)
T7 construct: Overlapping peptide of the outer loop of human LAG-3; also called LAG-3 Extra cyclic peptide
T7 peptide: PSSWGPRPRRYTK-{Biotin′}

T8: SSWGPRPRRYTVK-Biotin (human)
T8 construct: Overlapping peptide of the outer loop of human LAG-3; also called LAG-3 Extra cyclic peptide
T8 peptide: SSWGPRPRRYTVK-{Biotin′}

T9: human LAG-3 on cells (HEK293-hLAG-3 stable cell line) (human, UniProt P18627 23-525)
T9 sequence: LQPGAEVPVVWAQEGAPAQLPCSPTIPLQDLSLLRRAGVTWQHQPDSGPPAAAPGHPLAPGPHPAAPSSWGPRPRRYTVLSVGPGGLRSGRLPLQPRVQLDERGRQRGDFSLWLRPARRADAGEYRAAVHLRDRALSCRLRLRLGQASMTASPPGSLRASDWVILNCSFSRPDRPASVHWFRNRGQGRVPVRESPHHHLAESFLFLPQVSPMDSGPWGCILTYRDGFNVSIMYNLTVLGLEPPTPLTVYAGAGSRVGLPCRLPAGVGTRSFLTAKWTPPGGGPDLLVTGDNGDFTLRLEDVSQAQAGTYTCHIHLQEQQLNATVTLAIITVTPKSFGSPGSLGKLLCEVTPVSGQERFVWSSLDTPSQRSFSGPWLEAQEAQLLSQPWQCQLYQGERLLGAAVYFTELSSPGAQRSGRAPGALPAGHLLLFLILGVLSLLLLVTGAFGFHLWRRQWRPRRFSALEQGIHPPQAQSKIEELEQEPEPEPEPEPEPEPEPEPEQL


Assays:
WGPRPRRYTVLSK-Biotin = target: T1, WGPRPRRYTVLSK-Biotin; experiment: peptide scanning ELISA, biotin peptide on streptavidin
Method: (§1) Fifteen overlapping peptides including the full length of the outer loop sequence were prepared and biotin was coupled to each C-terminus. Enzyme-linked immunosorbent assay (ELISA) was used to detect the binding of antibodies to these peptides. Streptavidin (sigma, Cat #M5432) was diluted with PBS to a final concentration of 1.0 μg/ml, and then added as 100 μl per well to a 96-well ELISA plate. The plate was sealed with plastic film and incubated overnight at 4° C. The plate was washed 2 times with the plate washing solution (PBS+0.01% Tween20) on the next day, and added with the blocking solution (PBS+0.01% Tween20+1% BSA) and blocked at room temperature for 1-2 hours. The blocking solution was poured off, and biotinylated peptides was added to a final concentration of 1 ug/ml, as 100 ul per well to the 96-well ELISA plate, incubated at 37° C. for 1-2 hours, then washed with plate washing solution (PBS+0.01% Tween20)2-3 times. Then the antibody samples to be tested were incubated as 100 μl per well at 37° C. for 1-2 hours, and then the plate was washed 2-3 times with a plate washing solution (PBS+0.01% Tween20). HRP (horseradish peroxidase) labeled secondary antibody was added, and the plate was incubated at 37° C. for 1-2 hours, and washed 2-3 times with a plate washing solution (PBS+0.01% Tween20). 100 μl of TMB substrate was added to each well. After incubated at room temperature for 15-30 minutes, the plate was added with 100 μl of stop solution (1.0N HCl) to each well.

PAAPSSWGPRPRK-Biotin = target: T2, PAAPSSWGPRPRK-Biotin; experiment: as above
Method: as §1

[1] = target: T3, GPPAAAPGHPLAPGPHPAAPSSWGPRPRRYK-biotin …; experiment: as above
Method: as §1

SWGPRPRRYTVLK-Biotin = target: T4, SWGPRPRRYTVLK-Biotin; experiment: as above
Method: as §1

APSSWGPRPRRYK-Biotin = target: T5, APSSWGPRPRRYK-Biotin; experiment: as above
Method: as §1

AAPSSWGPRPRRK-Biotin = target: T6, AAPSSWGPRPRRK-Biotin; experiment: as above
Method: as §1

PSSWGPRPRRYTK-Biotin = target: T7, PSSWGPRPRRYTK-Biotin; experiment: as above
Method: as §1

SSWGPRPRRYTVK-Biotin = target: T8, SSWGPRPRRYTVK-Biotin; experiment: as above
Method: as §1

[2] = target: T9, human LAG-3 on cells (HEK293-hLAG-3 …); experiment: FACS, HEK293-hLAG-3, antibody 0.064 nM
Source text: The pIRES plasmid with the monkey-derived full-length gene was transfected into the HEK293 cell line to construct a HEK293 stable cell line containing monkey LAG-3 (herein referred to as HEK293-cLAG-3 stable cell line). The HEK293-hLAG-3 stable cell line and HEK293-cLAG-3 stable cell line were expanded in a T-75 cell culture flask to a 90% confluence. The medium was aspirated, and the cells were washed with HBSS (Hanks' Balanced Salt Solution) 1-2 times, then treated with a enzyme-free cell dissociation fluid (Versene solution: Life technology) and the cells were collected. The cells were washed with HBSS buffer for 1-2 times. After counted, the cells were diluted with HBSS to 1-2×10⁶ cells per ml, added with 1% goat serum blocking solution, incubated on ice for 20-30 minutes, and then washed with HBSS for 2 times by centrifugation. The collected cells were suspended in the FACS buffer (HBSS+1% BSA) to 2×10⁶ cells/ml, added as 100 microliters per well to a 96-well FACS reaction plate, added with 100 microliters per well of the antibody sample to be tested, incubated on ice for 1-2 hours. The plate was washed twice with the FACS buffer by centrifugation, added with 100 microliters of fluorescent (Alexa 488)-labeled secondary antibodies per well, and incubated on ice for 0.5-1.0 hours. The plate was washed 2-3 times with FACS buffer by centrifugation, added with 100 μl fixative solution (4% Paraformaldehyde) per well to suspend the cells. 5-10 minutes later, it was washed 1-2 times with FACS buffer by centrifugation. The cells were suspended with 100 microliters of FACS buffer, FACS (FACSCalibur, BD) was used for detection and the results were analyzed.

Binder	binding result (WGPRPRRYTVLSK-Biotin)	binding result (PAAPSSWGPRPRK-Biotin)	binding result [1]	binding result (SWGPRPRRYTVLK-Biotin)	binding result (APSSWGPRPRRYK-Biotin)	binding result (AAPSSWGPRPRRK-Biotin)	binding result (PSSWGPRPRRYTK-Biotin)	binding result (SSWGPRPRRYTVK-Biotin)	Mean fluorescence intensity [2]
405B8H3 (mouse antibody purified from hybridoma) (antibody, V domains shown, also called mAb103-405B8H3; 405B81-13) VH: QVQLQQSGAELVRPGASVTLSCKASGYTFTDYEMHWVKQTPVHGLEWIGATDPETGNSAYNQKFKGKAIMTADKSSSTAYMELRSLTSEDSAVYYCISTGWNDWGQGTSLTVSS VL: DIKMTQSPSSMYASLGERVTITCKASQDINSYLSWFQQKPGKSPKTLIYRADRLLDGVPSRFSGSGSGQDYSLTISSLEYGDMGIYYCLQYDEFPYTFGGGTKLEIK	binds	binds	binds	binds	binds	binds	binds	binds	–
405B8H3 mouse-human chimeric antibody (antibody, V domains shown, also called mAb103-405B8H3) VH: QVQLQQSGAELVRPGASVTLSCKASGYTFTDYEMHWVKQTPVHGLEWIGATDPETGNSAYNQKFKGKAIMTADKSSSTAYMELRSLTSEDSAVYYCISTGWNDWGQGTSLTVSS VL: DIKMTQSPSSMYASLGERVTITCKASQDINSYLSWFQQKPGKSPKTLIYRADRLLDGVPSRFSGSGSGQDYSLTISSLEYGDMGIYYCLQYDEFPYTFGGGTKLEIK	–	–	–	–	–	–	–	–	6.3
105F1E10 (mouse antibody purified from hybridoma) (antibody, V domains shown, also called mAb009-105F1E10) VH: EVQLQQSGPELVKPGASVKMSCRASGYTFTDFKMHWMKQSHGKSLEWIGYIAPNNGGTAYNQKFRGKATLTVNESSNTAYMELRSLTSEDSAVYYCVDWDDVDYWGQGTTLTVSS VL: DIKMTQSPSSMYASLGERVTITCKASQDINSYLSWFQQKSGKSPKTLIYRANRLVDGVPSRFSGSGSGQDYSLTISSLEYEDMGIYYCLQYVEFPLTFGAGTKLELK	binds	binds	binds	binds	binds	binds	binds	binds	–
105F1E10 mouse-human chimeric antibody (antibody, V domains shown, also called mAb009-105F1E10) VH: EVQLQQSGPELVKPGASVKMSCRASGYTFTDFKMHWMKQSHGKSLEWIGYIAPNNGGTAYNQKFRGKATLTVNESSNTAYMELRSLTSEDSAVYYCVDWDDVDYWGQGTTLTVSS VL: DIKMTQSPSSMYASLGERVTITCKASQDINSYLSWFQQKSGKSPKTLIYRANRLVDGVPSRFSGSGSGQDYSLTISSLEYEDMGIYYCLQYVEFPLTFGAGTKLELK	–	–	–	–	–	–	–	–	5.1
409B11E12 (mouse antibody purified from hybridoma) (antibody, V domains shown, also called mAb104-409B11E12) VH: QVQLQQSGAELVRPGASVTLSCKASGYTFTDYEMHWVKQTTVHGLEWIGATDPETSYSAYNQKFKGKAILTADKSSSTAYMELRSLTSEDSAVYYCIATGWNDWGQGTSLTVSS VL: DLKMTQSPSSMYASLGERVTITCKASQDINSYLSWFQQKPGKSPKTLIYRANRLLDGVPSRFSGSGSGQDYSLTISSLEYEDMGIYYCLQYDEFPYTFGGGTKLEIK	binds	binds	binds	binds	binds	binds	binds	binds	–
409D4E10 (mouse antibody purified from hybridoma) (antibody, V domains shown, also called mAb112-409D4E10) VH: QVQLQQSGAELVRPGASVTLSCKASGNTFTDYEMHWVKQTPVHGLEWIGATDPETDNTAYNQKFKGKAILTTDKSSSTAYMELRSLTSEDSAVYYCITSGWNDWGQGTSLTVSS VL: DIKMTQSPSSMYASLGERVTITCKASQDINSYLSWFQQKPGKSPKTLIYRANRLLDGVPSRFSGSGSGQDYSLTISSLEYEDMGIYYCLQYNEFPYTFGGGTKLEIK	binds	binds	binds	binds	binds	binds	binds	binds	–
409D4E10 mouse-human chimeric antibody (antibody, V domains shown, also called mAb112-409D4E10) VH: QVQLQQSGAELVRPGASVTLSCKASGNTFTDYEMHWVKQTPVHGLEWIGATDPETDNTAYNQKFKGKAILTTDKSSSTAYMELRSLTSEDSAVYYCITSGWNDWGQGTSLTVSS VL: DIKMTQSPSSMYASLGERVTITCKASQDINSYLSWFQQKPGKSPKTLIYRANRLLDGVPSRFSGSGSGQDYSLTISSLEYEDMGIYYCLQYNEFPYTFGGGTKLEIK	–	–	–	–	–	–	–	–	6.3
409B11E12 mouse-human chimeric antibody (antibody, V domains shown, also called mAb104-409B11E12) VH: QVQLQQSGAELVRPGASVTLSCKASGYTFTDYEMHWVKQTTVHGLEWIGATDPETSYSAYNQKFKGKAILTADKSSSTAYMELRSLTSEDSAVYYCIATGWNDWGQGTSLTVSS VL: DLKMTQSPSSMYASLGERVTITCKASQDINSYLSWFQQKPGKSPKTLIYRANRLLDGVPSRFSGSGSGQDYSLTISSLEYEDMGIYYCLQYDEFPYTFGGGTKLEIK	–	–	–	–	–	–	–	–	6.3
556F6B8 mouse-human chimeric antibody (antibody, V domains shown, also called mAb123-556F6B8; 556F8B8) VH: RVQLKQSGPGLVQPSQSLSITCTVSGFSLIKYGVHWVRQSPGEGLEWLGVIWRGGITDYNAAFMSRLSITKDNSKSQVFFKMNSLQADDTAIYYCAKWDGPLAMDYWGQGTSVTVSS VL: DIVMTQSHKFLSTSVGDRVSITCKASQDVGTTVAWYQQKPGQSPKLLIYWASTRHTGVPDRFTGSGSGTDFTLTISNVQSEDLADYFCQQYSSYPYTFGGGTKLEIK	–	–	–	–	–	–	–	–	6.5
